PMC9985635

Target: p65 (UniProt Q04206)
Assay: co-immunoprecipitation, immunoblot
Settings: reference: wild-type RB; sites S249,T252

Substance: RB (retinoblastoma protein) (from UniProt P06400) RB S249A/T252A
- binding against the reference: weaker
